Assay results published in US20060234944A1 (OKLAHOMA MEDICAL RESEACH FOUNDATION, published 2006).
Where no end group is shown, it is not given here. resin bead = not defined here; resin = not defined here

Legend:
[1] = target: T1, memapsin 1 (auto-catalytically activated promemapsin 1-T1; amino acid residues 58-461 of SEQ ID NO: 4) (Homo sapiens (Human), UniProt Q9Y5Z0 63-466); assay: on-bead combinatorial inhibitor library probed with memapsin 1, antibody/alkaline phosphatase staining
T1 construct: also called Mep1; M1
T1 sequence: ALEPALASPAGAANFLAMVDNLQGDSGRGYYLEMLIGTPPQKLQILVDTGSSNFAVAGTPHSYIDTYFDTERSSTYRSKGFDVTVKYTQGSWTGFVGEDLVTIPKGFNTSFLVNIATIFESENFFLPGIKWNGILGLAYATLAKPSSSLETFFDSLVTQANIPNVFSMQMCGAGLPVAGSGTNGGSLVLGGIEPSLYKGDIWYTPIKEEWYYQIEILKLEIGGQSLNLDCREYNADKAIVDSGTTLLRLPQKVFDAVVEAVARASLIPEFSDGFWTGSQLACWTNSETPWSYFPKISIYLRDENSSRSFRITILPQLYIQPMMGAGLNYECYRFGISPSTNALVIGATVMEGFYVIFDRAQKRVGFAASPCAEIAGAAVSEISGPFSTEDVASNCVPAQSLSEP

[2] = target: T2, memapsin 2 (spontaneously activated promemapsin 2-T1; amino acids 43-456 and 45-456 of SEQ ID NO: 8) (human, UniProt P56817 41-454); assay: on-bead combinatorial inhibitor library probed with 4 nM memapsin 2, OM99-2 wash, antibody/alkaline phosphatase staining
T2 construct: The library probing says only 'recombinant memapsin 2'; also called BACE; ASP2

[3] = target: T1, memapsin 1 (auto-catalytically …); assay: ratio of Ki apparent for memapsin 1 to Ki apparent for memapsin 2
[4] = target: T2, memapsin 2 (spontaneously activated …); assay: enzyme inhibition kinetics
[5] = target: T1, memapsin 1 (auto-catalytically …); assay: inhibition of FS-2 fluorogenic substrate cleavage
[6] = target: T2, memapsin 2 (spontaneously activated …); assay: inhibition of FS-2 fluorogenic substrate cleavage; paragraph 177 calls the same value Ki
[7] = target: T2, memapsin 2 (spontaneously activated …); assay: co-crystal structure
[8] = target: T2, memapsin 2 (spontaneously activated …); assay: on-bead combinatorial inhibitor library, antibody/alkaline phosphatase staining

T2 sequence (P56817 41-454): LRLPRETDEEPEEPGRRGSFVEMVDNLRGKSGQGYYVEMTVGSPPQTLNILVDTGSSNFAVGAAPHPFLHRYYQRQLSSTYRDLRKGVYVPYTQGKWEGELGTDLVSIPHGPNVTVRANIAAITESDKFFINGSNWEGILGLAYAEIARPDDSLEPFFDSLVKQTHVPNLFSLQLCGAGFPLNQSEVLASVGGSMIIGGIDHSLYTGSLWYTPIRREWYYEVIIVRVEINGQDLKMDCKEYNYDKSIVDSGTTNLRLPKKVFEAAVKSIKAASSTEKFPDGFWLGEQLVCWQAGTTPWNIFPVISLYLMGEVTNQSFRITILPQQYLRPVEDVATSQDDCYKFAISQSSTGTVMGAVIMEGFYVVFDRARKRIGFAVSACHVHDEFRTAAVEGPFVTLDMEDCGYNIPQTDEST

B1: library bead inhibitor Gly-Leu-Asp-Leu*Ala-Val-Trp-Phe-Arg-Met-Gly-Gly-resin (peptide)
peptide: GLDLAVWFRMGG-resin
modifications: reading uncertain; also: hydroxyethylene isostere between Leu4 and Ala5, printed as Gly-Leu-Asp-Leu*Ala-Val-Trp-Phe-Arg-Met-Gly-Gly-resin
[1]
  binding result: binds

B2: library bead inhibitor Gly-Leu-Asp-Leu*Ala-Val-Thr-Phe-Arg-Met-Gly-Gly-resin (peptide)
peptide: GLDLAVTFRMGG-resin
modifications: reading uncertain; also: hydroxyethylene isostere between Leu4 and Ala5, printed as Gly-Leu-Asp-Leu*Ala-Val-Thr-Phe-Arg-Met-Gly-Gly-resin
[1]
  binding result: binds

B3: library bead inhibitor Gly-Leu-Asp-Leu*Ala-Val-Met-Phe-Arg-Met-Gly-Gly-resin (peptide)
peptide: GLDLAVMFRMGG-resin
modifications: reading uncertain; also: hydroxyethylene isostere between Leu4 and Ala5, printed as Gly-Leu-Asp-Leu*Ala-Val-Met-Phe-Arg-Met-Gly-Gly-resin
[1]
  binding result: binds

B4: library bead inhibitor Gly-Leu-Glu-Leu*Ala-Val-Gln-Phe-Arg-Met-Gly-Gly-resin (peptide)
peptide: GLELAVQFRMGG-resin
modifications: reading uncertain; also: hydroxyethylene isostere between Leu4 and Ala5, printed as Gly-Leu-Glu-Leu*Ala-Val-Gln-Phe-Arg-Met-Gly-Gly-resin
[1]
  binding result: binds
[2]
  binding result: binds

B5: library bead inhibitor Gly-Leu-Asp-Leu*Ala-Val-Leu-Phe-Arg-Met-Gly-Gly-resin (peptide)
peptide: GLDLAVLFRMGG-resin
modifications: reading uncertain; also: hydroxyethylene isostere between Leu4 and Ala5, printed as Gly-Leu-Asp-Leu*Ala-Val-Leu-Phe-Arg-Met-Gly-Gly-resin
[1]
  binding result: binds

B6: library bead inhibitor Gly-Leu-Asp-Leu*Ala-Val-Lys-Phe-Arg-Met-Gly-Gly-resin (peptide)
peptide: GLDLAVKFRMGG-resin
modifications: reading uncertain; also: hydroxyethylene isostere between Leu4 and Ala5, printed as Gly-Leu-Asp-Leu*Ala-Val-Lys-Phe-Arg-Met-Gly-Gly-resin
[1]
  binding result: binds

B7: library bead inhibitor Gly-Leu-Glu-Leu*Ala-Val-Trp-Phe-Arg-Met-Gly-Gly-resin (peptide)
peptide: GLELAVWFRMGG-resin
modifications: reading uncertain; also: hydroxyethylene isostere between Leu4 and Ala5, printed as Gly-Leu-Glu-Leu*Ala-Val-Trp-Phe-Arg-Met-Gly-Gly-resin
[1]
  binding result: binds

B8: library bead inhibitor Gly-Ile-Asn-Leu*Ala-Val-Leu-Phe-Arg-Met-Gly-Gly-resin (peptide)
peptide: GINLAVLFRMGG-resin
modifications: reading uncertain; also: hydroxyethylene isostere between Leu4 and Ala5, printed as Gly-Ile-Asn-Leu*Ala-Val-Leu-Phe-Arg-Met-Gly-Gly-resin
[1]
  binding result: binds

## ELDLAVEF (also: hydroxyethylene isostere in place of Leu4-Ala5 peptide bond) [OM00-3 (ELDL*AVEF)]
[3]
  Ki apparent (M1/M2): 0.59
[4]
  Ki: 0.3 nM
  fold improvement of Ki over OM99-2: 5.2 fold
  fold lower Ki than OM99-2: ~5 fold
[5]
  Ki apparent: 0.18 nM
[6]
  Ki apparent: 0.31 nM

B9: OM99-2 (EVNL*AAEF) (peptide)
peptide: EVNXXAEF
modifications: hydroxyethylene transition-state isostere (*) in place of the peptide bond between Leu4 (P1) and Ala5 (P1′)
notes: also called EVNLΨAAEF
[7]
  binding result: binds

B10: library bead inhibitor Gly-Ile-Asp-Leu*Ala-Val-Tyr-Phe-Arg-Met-Gly-Gly-resin (peptide)
peptide: GIDLAVYFRMGG-resin
modifications: reading uncertain; also: hydroxyethylene isostere between Leu4 and Ala5, printed as Gly-Ile-Asp-Leu*Ala-Val-Tyr-Phe-Arg-Met-Gly-Gly-resin
[2]
  binding result: binds

B11: library bead inhibitor Gly-Leu-Asp-Leu*Ala-Val-Glu-Phe-Arg-Met-Gly-Gly-resin (peptide)
peptide: GLDLAVEFRMGG-resin
modifications: reading uncertain; also: hydroxyethylene isostere between Leu4 and Ala5, printed as Gly-Leu-Asp-Leu*Ala-Val-Glu-Phe-Arg-Met-Gly-Gly-resin
[2]
  binding result: binds

B12: library bead inhibitor Gly-Leu-Phe-Leu*Ala-Val-Glu-Phe-Arg-Met-Gly-Gly-resin (peptide)
peptide: GLFLAVEFRMGG-resin
modifications: reading uncertain; also: hydroxyethylene isostere between Leu4 and Ala5, printed as Gly-Leu-Phe-Leu*Ala-Val-Glu-Phe-Arg-Met-Gly-Gly-resin
[2]
  binding result: binds

B13: library bead inhibitor Gly-Leu-Glu-Leu*Ala-Val-Glu-Phe-Arg-Met-Gly-Gly-resin (peptide)
peptide: GLELAVEFRMGG-resin
modifications: reading uncertain; also: hydroxyethylene isostere between Leu4 and Ala5, printed as Gly-Leu-Glu-Leu*Ala-Val-Glu-Phe-Arg-Met-Gly-Gly-resin
[2]
  binding result: binds

B14: library bead inhibitor Gly-Leu-Asp-Leu*Ala-Val-Gln-Phe-Arg-Met-Gly-Gly-resin (peptide)
peptide: GLDLAVQFRMGG-resin
modifications: reading uncertain; also: hydroxyethylene isostere between Leu4 and Ala5, printed as Gly-Leu-Asp-Leu*Ala-Val-Gln-Phe-Arg-Met-Gly-Gly-resin
[2]
  binding result: binds

B15: library bead inhibitor Gly-Leu-Asn-Leu*Ala-Val-Glu-Phe-Arg-Met-Gly-Gly-resin (peptide)
peptide: GLNLAVEFRMGG-resin
modifications: reading uncertain; also: hydroxyethylene isostere between Leu4 and Ala5, printed as Gly-Leu-Asn-Leu*Ala-Val-Glu-Phe-Arg-Met-Gly-Gly-resin
[1]
  binding result: binds

B16: library bead Neg1: Gly-Phe-Met-Leu*Ala-Asn-Arg-Phe-Arg-Met-Gly-Gly-resin (peptide)
peptide: GFMLANRFRMGG-resin
modifications: reading uncertain; also: hydroxyethylene isostere between Leu4 and Ala5, printed as Gly-Phe-Met-Leu*Ala-Asn-Arg-Phe-Arg-Met-Gly-Gly-resin
notes: Randomly selected negative control bead
[8]
  binding result: no binding (tested: 4 nM memapsin 2)

B17: library bead Neg2: Gly-Asp-Phe-Leu*Ala-(not printed)-Ser-Phe-Arg-Met-Gly-Gly-resin (peptide)
peptide: GDFLAXSFRMGG-{resin bead}
modifications: not fully specified; X: residue not identified in the source; also: hydroxyethylene isostere between Leu4 and Ala5
notes: as for B16
[8]
  binding result: no binding (tested: 4 nM memapsin 2)

B18: library bead inhibitor Gly-Leu-Gln-Leu*Ala-Val-Ile-Phe-Arg-Met-Gly-Gly-resin (peptide)
peptide: GLQLAVIFRMGG-resin
modifications: reading uncertain; also: hydroxyethylene isostere between Leu4 and Ala5, printed as Gly-Leu-Gln-Leu*Ala-Val-Ile-Phe-Arg-Met-Gly-Gly-resin
[1]
  binding result: binds

B19: library bead inhibitor Gly-Ile-Asp-Leu*Ala-Val-Val-Phe-Arg-Met-Gly-Gly-resin (peptide)
peptide: GIDLAVVFRMGG-resin
modifications: reading uncertain; also: hydroxyethylene isostere between Leu4 and Ala5, printed as Gly-Ile-Asp-Leu*Ala-Val-Val-Phe-Arg-Met-Gly-Gly-resin
[1]
  binding result: binds

B20: library bead inhibitor Gly-Ile-Asp-Leu*Ala-Val-Asn-Phe-Arg-Met-Gly-Gly-resin (peptide)
peptide: GIDLAVNFRMGG-resin
modifications: reading uncertain; also: hydroxyethylene isostere between Leu4 and Ala5, printed as Gly-Ile-Asp-Leu*Ala-Val-Asn-Phe-Arg-Met-Gly-Gly-resin
[1]
  binding result: binds

B21: library bead inhibitor Gly-Ile-Phe-Leu*Ala-Val-Glu-Phe-Arg-Met-Gly-Gly-resin (peptide)
peptide: GIFLAVEFRMGG-resin
modifications: reading uncertain; also: hydroxyethylene isostere between Leu4 and Ala5, printed as Gly-Ile-Phe-Leu*Ala-Val-Glu-Phe-Arg-Met-Gly-Gly-resin
[1]
  binding result: binds
